The data set concerns the molecule itself. As to the kind of experiment: cross-linking; purified protein cross-linked with 0.03% glutaraldehyde, analysed by SDS-PAGE.

B1: full-length PARN, recombinant (enzyme, human, UniProt O95453 1-639, looked up)
chain: MEIIRSNFKSNLHKVYQAIEEADFFAIDGEFSGISDGPSVSALTNGFDTPEERYQKLKKHSMDFLLFQFGLCTFKYDYTDSKYITKSFNFYVFPKPFNRSSPDVKFVCQSSSIDFLASQGFDFNKVFRNGIPYLNQEEERQLREQYDEKRSQANGAGALSYVSPNTSKCPVTIPEDQKKFIDQVVEKIEDLLQSEENKNLDLEPCTGFQRKLIYQTLSWKYPKGIHVETLETEKKERYIVISKVDEEERKRREQQKHAKEQEELNDAVGFSRVIHAIANSGKLVIGHNMLLDVMHTVHQFYCPLPADLSEFKEMTTCVFPRLLDTKLMASTQPFKDIINNTSLAELEKRLKETPFNPPKVESAEGFPSYDTASEQLHEAGYDAYITGLCFISMANYLGSFLSPPKIHVSARSKLIEPFFNKLFLMRVMDIPYLNLEGPDLQPKRDHVLHVTFPKEWKTSDLYQLFSAFGNIQISWIDDTSAFVSLSQPEQVKIAVNTSKYAESYRIQTYAEYMGRKQEEKQIKRKWTEDSWKEADSKRLNPQCIPYTLQNHYYRNNSFTAPSTVGKRNLSPSQEEAGLEDGVSGEISDTELEQTDSCAEPLSEGRKKAKKLKRMKKELSPAGSISKNSPATLFEVPDTW
notes: poly(A)-specific ribonuclease (PARN), human, full length; cloned in pET-28a
On to B1, for which the binding result was “binds”.

The record behind these values is publication PMC6721724, “The Intrinsically Disordered C-Terminal Domain Triggers Nucleolar Localization and Function Switch of PARN in Response to DNA Damage” (Cells, 2019).
